This test addresses T1, Wildtype ubiquitin (human, UniProt P0CG48 1-76).
T1 construct: also called wt; not shown: N-terminal 6xHis tag of the pET derivative vector
The test is described as follows: biolayer interferometry, USP14catC114A on sensors, steady state fit. Background: Biolayer interferometry detects binding as a change in optical thickness at a sensor tip.

B1: USP14catC114A (enzyme, UniProt P54578 91-494, looked up)
chain: DMTEEQLASAMELPCGLTNLGNTAYMNATVQCIRSVPELKDALKRYAGALRASGEMASAQYITAALRDLFDSMDKTSSSIPPIILLQFLHMAFPQFAEKGEQGQYLQQDANECWIQMMRVLQQKLEAIEDDSVKETDSSSASAATPSKKKSLIDQFFGVEFETTMKCTESEEEEVTKGKENQLQLSCFINQEVKYLFTGLKLRLQEEITKQSPTLQRNALYIKSSKISRLPAYLTIQMVRFFYKEKESVNAKVLKDVKFPLMLDMYELCTPELQEKMVSFRSKFKDLEDKKVNQQPNTSDKKSSPQKEVKYEPFSFADDIGSNNCGYYDLQAVLTHQGRSSSSGHYVSWVKRKQDEWIKFDDDKVSIVTPEDILRLSGGGDWHIAYVLLYGPRRVEIMEEESEQ
modifications: monobiotinylated at the C-terminal Avi tag
notes: range 91-494; N-terminal His tag removed with TEV protease; also called catalytic domain of USP14 (residues D91-Q494) with a C114A mutation; not shown: C-terminal Avi tag
For orientation: Kd means a measure of binding affinity in units of concentration. High values mean weaker binding, low ones tighter binding. For B1, the Kd is 100 µM.

The values are drawn from patent US20130281314A1 (Genentech, published 2013).
